What is called Kd is a measure of binding affinity in units of concentration. For orientation: stoichiometry N means the number of molecules, sites or subunits per partner or assembly.

Kd, dH and stoichiometry N data for 9 substances are collected here from publication PMC5758712.

One assay addresses UbcH5A-Ub (UniProt P51668). Briefly: ITC; E2 or E2~Ub in the cell at 25–30 μM, RBR in the syringe at 250–300 μM; 293 K; 25 mM Hepes pH 7.5, 150 mM NaCl, 0.5 mM TCEP; 1:1 binding model. (Isothermal titration calorimetry measures the heat released or taken up as one component is titrated into another.)
For the next assay, the target named is UbcH7 (UniProt P68036). The assay is described as above.
The target of a further assay is UbcH7-Ub (UniProt P68036). Described as above.
In a further assay the target is UbcH5B (Homo sapiens) (UniProt P62837). The settings on record: cited from earlier work.
Sequence of UbcH5B (Homo sapiens) (P62837 whole entry): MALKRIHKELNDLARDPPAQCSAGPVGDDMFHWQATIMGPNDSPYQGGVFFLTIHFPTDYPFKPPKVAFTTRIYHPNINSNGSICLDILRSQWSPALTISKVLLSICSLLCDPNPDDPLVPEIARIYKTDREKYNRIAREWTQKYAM

Sequence of HHARI-RBR (Q9Y4X5 whole entry, the tested form may be a part): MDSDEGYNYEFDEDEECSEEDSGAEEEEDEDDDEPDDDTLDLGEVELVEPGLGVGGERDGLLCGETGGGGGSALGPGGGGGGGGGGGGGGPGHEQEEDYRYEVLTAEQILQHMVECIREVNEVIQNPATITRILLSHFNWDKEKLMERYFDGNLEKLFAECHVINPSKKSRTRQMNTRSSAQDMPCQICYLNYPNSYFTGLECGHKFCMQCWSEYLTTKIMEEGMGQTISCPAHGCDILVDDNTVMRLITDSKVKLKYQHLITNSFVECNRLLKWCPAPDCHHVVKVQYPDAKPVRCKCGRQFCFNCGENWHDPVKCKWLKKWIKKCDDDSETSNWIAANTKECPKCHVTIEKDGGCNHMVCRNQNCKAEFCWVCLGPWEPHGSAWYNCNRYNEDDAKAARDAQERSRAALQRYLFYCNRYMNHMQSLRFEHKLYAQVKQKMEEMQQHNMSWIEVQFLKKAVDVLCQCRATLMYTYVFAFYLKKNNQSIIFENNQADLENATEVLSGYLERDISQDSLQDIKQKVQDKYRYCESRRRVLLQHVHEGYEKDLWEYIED
Sequence of HHARI-Ring1 (Q9Y4X5 whole entry, the tested form may be a part): as above
Sequence of RNF144A-Ring1 (P50876 whole entry, the tested form may be a part): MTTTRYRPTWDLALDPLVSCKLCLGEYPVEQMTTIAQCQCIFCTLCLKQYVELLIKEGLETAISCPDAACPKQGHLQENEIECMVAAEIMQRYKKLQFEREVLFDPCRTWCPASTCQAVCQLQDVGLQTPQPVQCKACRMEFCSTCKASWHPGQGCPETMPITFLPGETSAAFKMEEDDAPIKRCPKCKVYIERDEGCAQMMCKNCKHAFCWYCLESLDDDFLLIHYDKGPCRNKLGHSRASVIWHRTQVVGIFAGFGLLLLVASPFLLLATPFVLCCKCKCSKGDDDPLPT
Sequence of RNF144A-RBR (P50876 1-250): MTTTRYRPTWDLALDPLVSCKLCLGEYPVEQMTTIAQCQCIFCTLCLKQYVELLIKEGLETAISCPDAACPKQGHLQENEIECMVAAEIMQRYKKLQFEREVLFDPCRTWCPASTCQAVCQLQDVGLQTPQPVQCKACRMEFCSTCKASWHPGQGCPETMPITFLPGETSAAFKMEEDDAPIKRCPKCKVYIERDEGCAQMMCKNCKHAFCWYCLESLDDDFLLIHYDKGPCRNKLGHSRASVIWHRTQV
Sequence of HOIP-Ring1 (Q96EP0 whole entry, the tested form may be a part): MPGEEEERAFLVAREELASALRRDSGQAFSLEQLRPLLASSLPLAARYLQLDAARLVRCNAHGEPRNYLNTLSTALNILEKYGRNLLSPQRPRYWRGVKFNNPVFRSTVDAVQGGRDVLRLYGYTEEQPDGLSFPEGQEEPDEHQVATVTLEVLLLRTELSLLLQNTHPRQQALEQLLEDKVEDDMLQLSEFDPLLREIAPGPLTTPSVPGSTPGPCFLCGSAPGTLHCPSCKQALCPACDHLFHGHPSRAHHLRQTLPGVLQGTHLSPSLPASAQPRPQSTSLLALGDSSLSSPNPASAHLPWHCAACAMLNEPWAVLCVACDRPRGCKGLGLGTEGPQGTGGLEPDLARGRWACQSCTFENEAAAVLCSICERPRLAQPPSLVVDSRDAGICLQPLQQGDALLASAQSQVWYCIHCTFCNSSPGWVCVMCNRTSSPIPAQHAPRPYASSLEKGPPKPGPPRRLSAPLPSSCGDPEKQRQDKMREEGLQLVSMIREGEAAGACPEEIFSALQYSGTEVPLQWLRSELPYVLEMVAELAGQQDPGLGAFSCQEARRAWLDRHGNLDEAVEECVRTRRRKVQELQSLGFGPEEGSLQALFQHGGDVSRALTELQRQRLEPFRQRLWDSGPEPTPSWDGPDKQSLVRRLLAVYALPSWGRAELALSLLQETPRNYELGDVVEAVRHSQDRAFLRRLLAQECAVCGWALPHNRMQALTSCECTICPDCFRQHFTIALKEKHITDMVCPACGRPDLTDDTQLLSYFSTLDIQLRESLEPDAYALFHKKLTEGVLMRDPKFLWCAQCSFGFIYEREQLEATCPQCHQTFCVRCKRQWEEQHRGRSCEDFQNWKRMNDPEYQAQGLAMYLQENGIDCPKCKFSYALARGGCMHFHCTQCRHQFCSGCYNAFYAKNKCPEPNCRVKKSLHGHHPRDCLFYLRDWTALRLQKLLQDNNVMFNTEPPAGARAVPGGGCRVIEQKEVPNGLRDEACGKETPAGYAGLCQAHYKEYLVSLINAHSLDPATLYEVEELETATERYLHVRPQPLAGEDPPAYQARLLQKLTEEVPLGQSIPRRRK
Sequence of HOIP-RBR (Q96EP0 whole entry, the tested form may be a part): as above
Sequence of HHARI (Q9Y4X5 whole entry): as the sequence (Q9Y4X5 whole entry, the tested form may be a part) above

As for “HOIP-RBR (from UniProt Q96EP0 1-1072) (domain or fragment)”, in the assay with UbcH5A-Ub, the equilibrium dissociation constant (Kd) is 4300 nM, the dH is -8.2 kcal/mol and the stoichiometry N worked out at 0.9. In the assay with UbcH7, the Kd was determined as 2300 nM, the dH turned out to be 0.8 kcal/mol and the stoichiometry N came out at 0.8. In the assay with UbcH7-Ub, the Kd was found to be 900 nM, the dH was 0.8 kcal/mol and the stoichiometry N was found to be 0.9.

As for HHARI (from UniProt Q9Y4X5), the Kd in the assay with UbcH5B (Homo sapiens) was 20000 nM.

“TRIAD3A-Ring1 (from UniProt Q9NWF9-2 1-866) (domain or fragment)”: the dissociation constant (Kd) with UbcH5A-Ub was > 50000 nM. In the assay with UbcH7, this substance showed an equilibrium dissociation constant (Kd) of 3200 nM, a dH of 4.5 kcal/mol and a stoichiometry N of 0.8. Moreover, in the assay with UbcH7-Ub, the dissociation constant (Kd) was 4300 nM, the dH amounted to 3.6 kcal/mol and the stoichiometry N turned out to be 0.8.

Regarding “HHARI-RBR (from UniProt Q9Y4X5 1-557) (domain or fragment)”, in the assay with UbcH5A-Ub, the dissociation constant Kd was 4500 nM, the dH is -3.7 kcal/mol and the stoichiometry N turned out to be 0.8. For the same substance, in the assay with UbcH7, the dissociation constant (Kd) amounted to 410 nM, the dH was determined as 1.8 kcal/mol and the stoichiometry N stood at 0.9. In the assay with UbcH7-Ub, the Kd is 200 nM, the dH is -2.3 kcal/mol and the stoichiometry N came to 0.9.

In the assay with UbcH7, “RNF144A-RBR (from UniProt P50876 1-250) (domain or fragment)” came in with a dissociation constant (Kd) of 1000 nM, a dH of 1.7 kcal/mol and a stoichiometry N of 0.9. Further, in the assay with UbcH7-Ub, the Kd amounted to 520 nM, the dH is -0.9 kcal/mol and the stoichiometry N was found to be 0.8.

For the substance “TRIAD3A-RBR (from UniProt Q9NWF9-2 510-801) (domain or fragment)”, in the assay with UbcH7-Ub, the Kd stood at 2400 nM, the dH came to 3.7 kcal/mol and the stoichiometry N was 0.9.

As for “HOIP-Ring1 (from UniProt Q96EP0 1-1072) (domain or fragment)”, the figures for the equilibrium dissociation constant (Kd) in the assay with UbcH5A-Ub and in the assay with UbcH7-Ub were > 50000 nM and 4300 nM, respectively. Besides, the dH with UbcH7 worked out at 1.4 kcal/mol; with UbcH7-Ub, 1.1 kcal/mol. The stoichiometry N was 1 with UbcH7 and 0.9 with UbcH7-Ub.

On to “RNF144A-Ring1 (from UniProt P50876 1-292) (domain or fragment)”, for which the Kd with UbcH5A-Ub was > 50000 nM. For the same substance, in the assay with UbcH7, the Kd stood at 2200 nM, the dH was 3.5 kcal/mol and the stoichiometry N stood at 0.8. For the same substance, in the assay with UbcH7-Ub, the dissociation constant (Kd) came out at 1000 nM, the dH is 2.7 kcal/mol and the stoichiometry N was determined as 0.8.

On to “HHARI-Ring1 (from UniProt Q9Y4X5 1-557) (domain or fragment)”, for which, in the assay with UbcH5A-Ub, the Kd was > 50000 nM. In the assay with UbcH7, this substance came in with a Kd of 210 nM, a dH of 4.2 kcal/mol and a stoichiometry N of 0.8. In the assay with UbcH7-Ub, this substance displayed an equilibrium dissociation constant (Kd) of 120 nM, a dH of 3.9 kcal/mol and a stoichiometry N of 0.8.
